Test results reported in publication PMC4330371, “Interaction between the RNA-dependent ATPase and poly(A) polymerase subunits of the TRAMP complex is mediated by short peptides and important for snoRNA processing” (Nucleic Acids Research, 2015).
Entries after “also recorded” stand apart in the source; their conditions may differ. No end group written: not given here.

B1: Trf5 fragment 53-124: yeast two-hybrid construct of Trf5 residues 53–124 (protein, UniProt P48561 53-124, looked up, fragment)
chain: AIDVEDDDTFGNLVLMENDKSDVDIPVIEEVTSSEDEQRAESSKRNNSLEDNQDFIAFSDSSEDETEQIKED
modifications: yeast two-hybrid fusion
B2: Trf5 fragment 53-199: yeast two-hybrid construct of Trf5 residues 53–199 (protein)
chain: AIDVEDDDTFGNLVLMENDKSDVDIPVIEEVTSSEDEQRAESSKRNNSLEDNQDFIAFSDSSEDETEQIKEDDDERSSFLLTDEHEVSKLTSQQSLNTESACNVEYPWIRNHCHSKQRRIADWLTSEIKDFVHYISPSKNEIKCRNR
modifications: left off: Gal4 activation domain (from the vector pOAD), end not stated, kept
B3: Trf5 fragment 68-199: yeast two-hybrid construct of Trf5 residues 68–199 (protein, UniProt P48561 68-199, looked up, fragment)
chain: MENDKSDVDIPVIEEVTSSEDEQRAESSKRNNSLEDNQDFIAFSDSSEDETEQIKEDDDERSSFLLTDEHEVSKLTSQQSLNTESACNVEYPWIRNHCHSKQRRIADWLTSEIKDFVHYISPSKNEIKCRNR
modifications: yeast two-hybrid fusion
B4: Trf5 fragment 83-199: yeast two-hybrid construct of Trf5 residues 83–199 (protein, UniProt P48561 83-199, looked up, fragment)
chain: VTSSEDEQRAESSKRNNSLEDNQDFIAFSDSSEDETEQIKEDDDERSSFLLTDEHEVSKLTSQQSLNTESACNVEYPWIRNHCHSKQRRIADWLTSEIKDFVHYISPSKNEIKCRNR
modifications: yeast two-hybrid fusion
B5: Trf5 fragment 98-199: yeast two-hybrid construct of Trf5 residues 98–199 (protein, UniProt P48561 98-199, looked up, fragment)
chain: NNSLEDNQDFIAFSDSSEDETEQIKEDDDERSSFLLTDEHEVSKLTSQQSLNTESACNVEYPWIRNHCHSKQRRIADWLTSEIKDFVHYISPSKNEIKCRNR
modifications: yeast two-hybrid fusion
B6: Trf5 fragment 118-199: yeast two-hybrid construct of Trf5 residues 118–199 (protein, UniProt P48561 118-199, looked up, fragment)
chain: TEQIKEDDDERSSFLLTDEHEVSKLTSQQSLNTESACNVEYPWIRNHCHSKQRRIADWLTSEIKDFVHYISPSKNEIKCRNR
modifications: yeast two-hybrid fusion
B7: Trf5 fragment 53-184: yeast two-hybrid construct of Trf5 residues 53–184 (protein, UniProt P48561 53-184, looked up, fragment)
chain: AIDVEDDDTFGNLVLMENDKSDVDIPVIEEVTSSEDEQRAESSKRNNSLEDNQDFIAFSDSSEDETEQIKEDDDERSSFLLTDEHEVSKLTSQQSLNTESACNVEYPWIRNHCHSKQRRIADWLTSEIKDFV
modifications: yeast two-hybrid fusion
B8: Trf5 fragment 53-169: yeast two-hybrid construct of Trf5 residues 53–169 (protein, UniProt P48561 53-169, looked up, fragment)
chain: AIDVEDDDTFGNLVLMENDKSDVDIPVIEEVTSSEDEQRAESSKRNNSLEDNQDFIAFSDSSEDETEQIKEDDDERSSFLLTDEHEVSKLTSQQSLNTESACNVEYPWIRNHCHSKQ
modifications: yeast two-hybrid fusion
B9: Trf5 fragment 53-154: yeast two-hybrid construct of Trf5 residues 53–154 (protein, UniProt P48561 53-154, looked up, fragment)
chain: AIDVEDDDTFGNLVLMENDKSDVDIPVIEEVTSSEDEQRAESSKRNNSLEDNQDFIAFSDSSEDETEQIKEDDDERSSFLLTDEHEVSKLTSQQSLNTESAC
modifications: yeast two-hybrid fusion
B10: Trf5 fragment 53-139: yeast two-hybrid construct of Trf5 residues 53–139 (protein, UniProt P48561 53-139, looked up, fragment)
chain: AIDVEDDDTFGNLVLMENDKSDVDIPVIEEVTSSEDEQRAESSKRNNSLEDNQDFIAFSDSSEDETEQIKEDDDERSSFLLTDEHEV
modifications: yeast two-hybrid fusion
B11: full-length TAP-tagged Trf5: TAP-tagged full-length Trf5 expressed from the endogenous TRF5 promoter (protein)
chain: MTRLKAKYSPTKGKRKEDKHTKRMRKSSFTRTQKMLEVFNDNRSHFNKYESLAIDVEDDDTFGNLVLMENDKSDVDIPVIEEVTSSEDEQRAESSKRNNSLEDNQDFIAFSDSSEDETEQIKEDDDERSSFLLTDEHEVSKLTSQQSLNTESACNVEYPWIRNHCHSKQRRIADWLTSEIKDFVHYISPSKNEIKCRNRTIDKLRRAVKELWSDADLHVFGSFATDLYLPGSDIDCVVNSRNRDKEDRNYIYELARHLKNKGLAIRMEVIVKTRVPIIKFIEPQSQLHIDVSFERTNGLEAAKLIREWLRDSPGLRELVLIIKQFLHSRRLNNVHTGGLGGFTVICLVYSFLNMHPRIKSNDIDVLDNLGVLLIDFFELYGKNFGYDDVAISISDGYASYIPKSCWRTLEPSRSKFSLAIQDPGDPNNNISRGSFNMKDIKKAFAGAFELLVNKCWELNSATFKDRVGKSILGNVIKYRGQKRDFNDERDLVQNKAIIENERYHKRRTRIVQEDLFINDTEDLPVEEIYKLDEPAKKKQKAKKDKREGEIKKSAIPSPPPDFGVSRSKLKRKVKKTDQGSLLHQNNLSIDDLMGLSENDQESDQDQKGRDTPSGQDEKSPLETKTVDAQTRRDYWLSKGQAL
modifications: left off: TAP, end not stated, kept
notes: TAP-tagged full-length Trf5 expressed from the endogenous TRF5 promoter

Tests used:
Format in all cases: cell-based, Saccharomyces cerevisiae
Mtr4-archless = experiment: Yeast two-hybrid interaction with Mtr4-archless; settings: growth on SC-ADE and SC-HIS
Description: (§1) The yeast two-hybrid assays used plasmids pOBD2 and pOAD that were previously described ([28]). The yeast two-hybrid plasmids for Mtr4 (pAV745), Mtr4-archless (pAV746) and Trf5–53–199 (pAV744) have been previously described as have the positive controls that contain MEC3 and RAD17 ([29]). Yeast two-hybrid plasmids with Trf5 residues 68–199 (pAV759), 83–199 (pAV760), 98–199 (pAV761), 118–199 (pAV766), 53–184 (pAV762), 53–169 (pAV763), 53–154 (pAV764), 53–139 (pAV767) and 53–124 (pAV768) were generated similarly to pAV744. Briefly, these regions of TRF5 were PCR amplified with primers that contain PvuII and PstI sites, digested with those restriction enzymes and cloned into pOAD. The yeast two-hybrid plasmids with Trf5 residues 98–117 were generated by cloning oligonucleotides for this region into the PvuII and PstI sites of pOAD.
(§2) Strain trf4Δ/trf5Δ/pRS416-TRF4 has been previously described (MATa, leu2-Δ0, ura3-Δ0, his3-Δ1, met15-Δ0, trf4Δ::NAT, trf5Δ::KAN; [33]). The TRF5 and trf5-Δ98–117 plasmids were introduced by transformation and selection on media lacking leucine. Transformants were then plated on media containing 5FOA to select for cells that had lost the pRS416-TRF4 plasmid. The rrp44-exo^−, rrp44-endo^− and rrp6Δ::KAN strains are isogenic to this strain and have been previously described ([31]). […]

Mtr4 = experiment: Yeast two-hybrid interaction with Mtr4; parameters: key to Y2H interaction with Mtr4: +: growth on both SC-ADE and SC-HIS supplemented with 10 mM 3-AT; -: a failure to interact; settings: for yeast two-hybrid interaction with Mtr4: full-length Mtr4, growth on SC-ADE and SC-HIS; for Y2H interaction with Mtr4: Trf5 fragments, growth on SC-ADE and SC-HIS supplemented with 10 mM 3-AT
Description: as §1
Strain trf4Δ/trf5Δ/pRS416-TRF4 has been previously described (MATa, leu2-Δ0, ura3-Δ0, his3-Δ1, met15-Δ0, trf4Δ::NAT, trf5Δ::KAN; [33]). The TRF5 and trf5-Δ98–117 plasmids were introduced by transformation and selection on media lacking leucine. Transformants were then plated on media containing 5FOA to select for cells that had lost the pRS416-TRF4 plasmid. The rrp44-exo^−, rrp44-endo^− and rrp6Δ::KAN strains are isogenic to this strain and have been previously described ([31]). Yeast two-hybrid strains PJ69–4α and PJ69–4a have been previously described ([28],[34]). They are MATα and MATa, respectively, and in addition are both trp1–901, leu2–3,112, ura3–52, his3–200, gal4Δ, gal80Δ, LYS2::GAL1-HIS3, GAL2-ADE2, met2::GAL7-lacZ.
Yeast two-hybrid assays were carried out as previously described ([29]). Briefly, the MTR4 TRP1 plasmids were transformed into PJ69–4α and the TRF5 LEU2 plasmids were transformed into PJ69–4a. Transformants were crossed to each other and diploids that contain both plasmids were selected on SC-TRP-LEU. These diploids were then serially diluted and spotted on SC-TRP-LEU, SC-ADE and SC-HIS media.

endogenous Mtr4 = experiment: Co-purification of endogenous Mtr4 with TAP-tagged Trf5; settings: TAP-tagged Trf5 proteins expressed from endogenous promoter, IgG Sepharose, 2 h at 4°C, IP50/IP150 buffer pH 7.5, western blot with anti-Mtr4
Description: The Trf5-Δ98–117-TAP and Trf5-TAP plasmids are low copy (CEN) plasmids derived from pRS415 ([30]) with the endogenous TRF5 promoter driving expression of Trf5 or Trf5-Δ98–117. The trf5-Δ98–117-TAP plasmid (pAV854) was generated by ligation of three DNA fragments. The first fragment contained the promoter and 5′ end of TRF5 and was generated by PCR with oligonucleotides oAV906 ([…]) and oAV870 ([…]) and digestion with NotI and SpeI. The second fragment contained the 3′ end of TRF5 and was generated by PCR with oligonucleotides oAV871 ([…]) and oAV869 ([…]) and digestion with SpeI and PstI. The third fragment was pAV476 ([31]) digested with NotI and PstI. The TRF5-TAP plasmid (pAV885) was subsequently generated by replacing an XbaI to BstAPI fragment that contained the internal deletion with the corresponding wild-type sequence.
as §2

| Molecule | Y2H interaction with Mtr4 (Mtr4) | also measured |
| --- | --- | --- |
| Trf5 98–117: yeast two-hybrid construct with Trf5 residues 98–117, conserved 20 amino acid peptide (NNSLEDNQDFIAFSDSSEDE; also: fused to Gal4 activation domain, end not given here) |  | yeast two-hybrid interaction with Mtr4-archless (Mtr4-archless): interacts both with full-length and archless Mtr4; yeast two-hybrid interaction with Mtr4 (Mtr4): interacts with Mtr4; yeast two-hybrid interaction with Mtr4 (Mtr4; listed as amino acids 98–117 of Trf5): sufficient for interaction with Mtr4; also recorded: indeed interacted with Mtr4 |
| B1 | + |  |
| B2 | + |  |
| B3 | + |  |
| B4 | + |  |
| B5 | + |  |
| B6 | - |  |
| B7 | + |  |
| B8 | + |  |
| B9 | + |  |
| B10 | + |  |
| B11 |  | co-purification of endogenous Mtr4 (words) (endogenous Mtr4): results in co-purification of endogenous Mtr4; co-purification of endogenous Mtr4 (words) (endogenous Mtr4; listed as full-length Trf5): readily detectable |
